Assay results: paper PMC9482650, “Quantitative fragmentomics allow affinity mapping of interactomes” (Nature Communications, 2022)

Molecular target: AHNAK1, Q09666
Assay: holdup assay
Parameters: key: below the threshold = too weak to quantify, mostly under pKd 3.1 to 4
Details: plain residues with an end cap or a label only (N-terminal biotin on a linker: ado-ado)

AHNAK1, Q09666, sequence (Q09666 4-100): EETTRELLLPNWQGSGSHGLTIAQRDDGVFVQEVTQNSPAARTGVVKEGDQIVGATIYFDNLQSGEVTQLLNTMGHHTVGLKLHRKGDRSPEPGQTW

Row | Binder | pKd
1 | SSALYGESDL [ACTN2, P35609] | below the threshold
2 | SKENVQETQI [LRRC4B, Q9NT99] | below the threshold

Molecular target: T1, APBA1_1, Q02410
T1 sequence (Q02410 651-752, limits assumed, looked up): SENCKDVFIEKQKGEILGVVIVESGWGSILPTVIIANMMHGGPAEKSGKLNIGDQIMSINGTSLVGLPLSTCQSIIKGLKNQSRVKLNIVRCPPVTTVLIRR
Assay: holdup assay
Parameters: key: below the threshold = too weak to quantify, mostly under pKd 3.1 to 4
Details: plain residues with an end cap or a label only (N-terminal biotin on a linker: ado-ado)

Row | Binder | pKd
3 | SSALYGESDL [ACTN2, P35609] | below the threshold
4 | SKENVQETQI [LRRC4B, Q9NT99] | 3.48

Molecular target: T2, APBA1_2, Q02410
T2 sequence (Q02410 742-832, limits assumed, looked up): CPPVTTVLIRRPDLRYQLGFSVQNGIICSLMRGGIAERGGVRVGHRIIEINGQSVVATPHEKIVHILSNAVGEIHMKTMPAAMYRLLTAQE
Assay: holdup assay
Parameters: key: below the threshold = too weak to quantify, mostly under pKd 3.1 to 4
Details: plain residues with an end cap or a label only (N-terminal biotin on a linker: ado-ado)

Row | Binder | pKd
5 | SSALYGESDL [ACTN2, P35609] | below the threshold
6 | SKENVQETQI [LRRC4B, Q9NT99] | below the threshold

Molecular target: T3, DLG3_1, Q92796
T3 sequence (Q92796 125-227, limits assumed, looked up): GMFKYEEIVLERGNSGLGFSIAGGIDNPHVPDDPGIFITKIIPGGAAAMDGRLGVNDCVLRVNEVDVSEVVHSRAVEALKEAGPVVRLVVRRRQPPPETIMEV
Assay: holdup assay
Parameters: key: below the threshold = too weak to quantify, mostly under pKd 3.1 to 4
Details: plain residues with an end cap or a label only (N-terminal biotin on a linker: ado-ado)

Row | Binder | pKd
7 | SSALYGESDL [ACTN2, P35609] | below the threshold
8 | SKENVQETQI [LRRC4B, Q9NT99] | 3.73

Molecular target: T4, DLG3_3, Q92796
T4 sequence (Q92796 374-475, limits assumed, looked up): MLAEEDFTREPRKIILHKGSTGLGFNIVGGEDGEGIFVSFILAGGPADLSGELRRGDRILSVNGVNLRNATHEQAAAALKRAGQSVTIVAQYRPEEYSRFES
Assay: holdup assay
Parameters: key: below the threshold = too weak to quantify, mostly under pKd 3.1 to 4
Details: plain residues with an end cap or a label only (N-terminal biotin on a linker: ado-ado)

Row | Binder | pKd
9 | SSALYGESDL [ACTN2, P35609] | 3.6
10 | SKENVQETQI [LRRC4B, Q9NT99] | 3.68

Molecular target: DLG4_1, P78352
Sequence (P78352 62-152): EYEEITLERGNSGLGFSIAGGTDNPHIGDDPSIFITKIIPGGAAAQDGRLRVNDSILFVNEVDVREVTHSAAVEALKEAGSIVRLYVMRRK
Assay: holdup assay
Parameters: key: below the threshold = too weak to quantify, mostly under pKd 3.1 to 4
Details: plain residues with an end cap or a label only (N-terminal biotin on a linker: ado-ado)

Row | Binder | pKd
11 | SSALYGESDL [ACTN2, P35609] | below the threshold
12 | SKENVQETQI [LRRC4B, Q9NT99] | 4.02

Molecular target: FRMPD2_3, Q68DX3
Sequence (Q68DX3 1073-1166): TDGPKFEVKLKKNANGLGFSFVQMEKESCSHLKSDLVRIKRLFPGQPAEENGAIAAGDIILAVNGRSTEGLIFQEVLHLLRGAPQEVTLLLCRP
Assay: holdup assay
Parameters: key: below the threshold = too weak to quantify, mostly under pKd 3.1 to 4
Details: plain residues with an end cap or a label only (N-terminal biotin on a linker: ado-ado)

Row | Binder | pKd
13 | SSALYGESDL [ACTN2, P35609] | below the threshold
14 | SKENVQETQI [LRRC4B, Q9NT99] | below the threshold

Molecular target: GRID2IP_2, A4D2P6
Sequence (A4D2P6 272-370): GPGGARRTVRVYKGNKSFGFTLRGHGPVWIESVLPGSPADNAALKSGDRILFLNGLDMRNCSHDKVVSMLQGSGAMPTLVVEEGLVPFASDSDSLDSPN
Assay: holdup assay
Parameters: key: below the threshold = too weak to quantify, mostly under pKd 3.1 to 4
Details: plain residues with an end cap or a label only (N-terminal biotin on a linker: ado-ado)

Row | Binder | pKd
15 | SSALYGESDL [ACTN2, P35609] | below the threshold
16 | SKENVQETQI [LRRC4B, Q9NT99] | 3.86

Molecular target: T5, GRIP1_3, Q9Y3R0
T5 sequence (Q9Y3R0 247-346, limits assumed, looked up): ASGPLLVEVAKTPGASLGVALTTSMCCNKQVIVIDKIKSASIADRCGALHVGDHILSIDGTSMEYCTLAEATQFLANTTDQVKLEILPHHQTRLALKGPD
Assay: holdup assay
Parameters: key: below the threshold = too weak to quantify, mostly under pKd 3.1 to 4
Details: plain residues with an end cap or a label only (N-terminal biotin on a linker: ado-ado)

Row | Binder | pKd
17 | SSALYGESDL [ACTN2, P35609] | below the threshold
18 | SKENVQETQI [LRRC4B, Q9NT99] | below the threshold

Molecular target: T6, GRIP1_5, Q9Y3R0
T6 sequence (Q9Y3R0 568-668, limits assumed, looked up): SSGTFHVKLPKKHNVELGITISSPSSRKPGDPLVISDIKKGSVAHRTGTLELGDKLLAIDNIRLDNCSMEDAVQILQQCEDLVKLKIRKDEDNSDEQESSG
Assay: holdup assay
Parameters: key: below the threshold = too weak to quantify, mostly under pKd 3.1 to 4
Details: plain residues with an end cap or a label only (N-terminal biotin on a linker: ado-ado)

Row | Binder | pKd
19 | SSALYGESDL [ACTN2, P35609] | below the threshold
20 | SKENVQETQI [LRRC4B, Q9NT99] | below the threshold

Molecular target: GRIP2_4, Q9C0E4
Sequence (Q9C0E4 446-548): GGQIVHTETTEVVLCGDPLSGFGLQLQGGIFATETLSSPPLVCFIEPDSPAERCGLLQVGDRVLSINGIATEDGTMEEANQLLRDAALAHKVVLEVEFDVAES
Assay: holdup assay
Parameters: key: below the threshold = too weak to quantify, mostly under pKd 3.1 to 4
Details: plain residues with an end cap or a label only (N-terminal biotin on a linker: ado-ado)

Row | Binder | pKd
21 | SSALYGESDL [ACTN2, P35609] | below the threshold
22 | SKENVQETQI [LRRC4B, Q9NT99] | below the threshold

Molecular target: GRIP2_5, Q9C0E4
Sequence (Q9C0E4 544-642): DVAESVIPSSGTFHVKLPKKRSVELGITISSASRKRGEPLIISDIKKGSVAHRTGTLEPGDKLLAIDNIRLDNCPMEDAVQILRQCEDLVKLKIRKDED
Assay: holdup assay
Parameters: key: below the threshold = too weak to quantify, mostly under pKd 3.1 to 4
Details: plain residues with an end cap or a label only (N-terminal biotin on a linker: ado-ado)

Row | Binder | pKd
23 | SSALYGESDL [ACTN2, P35609] | below the threshold
24 | SKENVQETQI [LRRC4B, Q9NT99] | below the threshold

Molecular target: HTRA1, Q92743
Sequence (Q92743 360-477): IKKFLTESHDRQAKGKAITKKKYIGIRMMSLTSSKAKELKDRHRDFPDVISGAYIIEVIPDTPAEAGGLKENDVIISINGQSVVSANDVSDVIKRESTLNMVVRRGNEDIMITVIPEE
Assay: holdup assay
Parameters: key: below the threshold = too weak to quantify, mostly under pKd 3.1 to 4
Details: plain residues with an end cap or a label only (N-terminal biotin on a linker: ado-ado)

Row | Binder | pKd
25 | SSALYGESDL [ACTN2, P35609] | below the threshold
26 | SKENVQETQI [LRRC4B, Q9NT99] | below the threshold

Molecular target: IL16_3, Q14005
Sequence (Q14005 1107-1207): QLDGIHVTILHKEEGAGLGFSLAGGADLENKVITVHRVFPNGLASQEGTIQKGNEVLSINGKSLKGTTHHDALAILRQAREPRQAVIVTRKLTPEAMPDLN
Assay: holdup assay
Parameters: key: below the threshold = too weak to quantify, mostly under pKd 3.1 to 4
Details: plain residues with an end cap or a label only (N-terminal biotin on a linker: ado-ado)

Row | Binder | pKd
27 | SSALYGESDL [ACTN2, P35609] | below the threshold
28 | SKENVQETQI [LRRC4B, Q9NT99] | below the threshold

Molecular target: Inadl_8, Q8NI35
Sequence (Q8NI35 1425-1530): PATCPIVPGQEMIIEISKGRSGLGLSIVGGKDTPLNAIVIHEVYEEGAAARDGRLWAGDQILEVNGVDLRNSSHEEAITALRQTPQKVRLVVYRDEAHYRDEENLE
Assay: holdup assay
Parameters: key: below the threshold = too weak to quantify, mostly under pKd 3.1 to 4
Details: plain residues with an end cap or a label only (N-terminal biotin on a linker: ado-ado)

Row | Binder | pKd
29 | SSALYGESDL [ACTN2, P35609] | below the threshold
30 | SKENVQETQI [LRRC4B, Q9NT99] | below the threshold

Molecular target: T7, LNX2_2, Q8N448
T7 sequence (Q8N448 334-432, limits assumed, looked up): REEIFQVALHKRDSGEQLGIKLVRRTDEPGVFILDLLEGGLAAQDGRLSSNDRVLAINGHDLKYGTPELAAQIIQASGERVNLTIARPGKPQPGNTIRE
Assay: holdup assay
Parameters: key: below the threshold = too weak to quantify, mostly under pKd 3.1 to 4
Details: plain residues with an end cap or a label only (N-terminal biotin on a linker: ado-ado)

Row | Binder | pKd
31 | SSALYGESDL [ACTN2, P35609] | below the threshold
32 | SKENVQETQI [LRRC4B, Q9NT99] | below the threshold

Molecular target: MAGI1_1, Q96QZ7
Sequence (Q96QZ7 1-106): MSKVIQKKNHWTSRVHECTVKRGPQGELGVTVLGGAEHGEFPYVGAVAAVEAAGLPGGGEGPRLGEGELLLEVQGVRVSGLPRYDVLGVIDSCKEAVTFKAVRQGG
Assay: holdup assay
Parameters: key: below the threshold = too weak to quantify, mostly under pKd 3.1 to 4
Details: plain residues with an end cap or a label only (N-terminal biotin on a linker: ado-ado)

Row | Binder | pKd
33 | SSALYGESDL [ACTN2, P35609] | below the threshold
34 | SKENVQETQI [LRRC4B, Q9NT99] | below the threshold

Molecular target: T8, MPP2, Q14168
T8 sequence (Q14168 180-250, limits assumed, looked up): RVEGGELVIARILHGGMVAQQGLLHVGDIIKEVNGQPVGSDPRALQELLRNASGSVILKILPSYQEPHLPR
Assay: holdup assay
Parameters: key: below the threshold = too weak to quantify, mostly under pKd 3.1 to 4
Details: plain residues with an end cap or a label only (N-terminal biotin on a linker: ado-ado)

Row | Binder | pKd
35 | SSALYGESDL [ACTN2, P35609] | below the threshold
36 | SKENVQETQI [LRRC4B, Q9NT99] | below the threshold

Molecular target: T9, NHERF3_1, Q5T2W1
T9 sequence (Q5T2W1 4-100, limits assumed, looked up): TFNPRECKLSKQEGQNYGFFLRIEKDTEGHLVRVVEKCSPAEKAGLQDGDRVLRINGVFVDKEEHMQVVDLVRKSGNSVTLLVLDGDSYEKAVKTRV
Assay: holdup assay
Parameters: key: below the threshold = too weak to quantify, mostly under pKd 3.1 to 4
Details: plain residues with an end cap or a label only (N-terminal biotin on a linker: ado-ado)

Row | Binder | pKd
37 | SSALYGESDL [ACTN2, P35609] | 3.57
38 | SKENVQETQI [LRRC4B, Q9NT99] | 5.07

Molecular target: NOS1, P29475
Sequence (P29475 9-101): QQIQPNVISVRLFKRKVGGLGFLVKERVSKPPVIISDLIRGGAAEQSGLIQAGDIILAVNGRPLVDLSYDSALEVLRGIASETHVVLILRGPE
Assay: holdup assay
Parameters: key: below the threshold = too weak to quantify, mostly under pKd 3.1 to 4
Details: plain residues with an end cap or a label only (N-terminal biotin on a linker: ado-ado)

Row | Binder | pKd
39 | SSALYGESDL [ACTN2, P35609] | below the threshold
40 | SKENVQETQI [LRRC4B, Q9NT99] | 3.85

Molecular target: PDLIM1, O00151
Sequence (O00151 1-87): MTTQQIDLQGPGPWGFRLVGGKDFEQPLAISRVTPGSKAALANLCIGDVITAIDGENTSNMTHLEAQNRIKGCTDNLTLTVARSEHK
Assay: holdup assay
Parameters: key: below the threshold = too weak to quantify, mostly under pKd 3.1 to 4
Details: plain residues with an end cap or a label only (N-terminal biotin on a linker: ado-ado)

Row | Binder | pKd
41 | SSALYGESDL [ACTN2, P35609] | 4.75
42 | SKENVQETQI [LRRC4B, Q9NT99] | below the threshold

Molecular target: PICK1, Q9NRD5
Sequence (Q9NRD5 17-115): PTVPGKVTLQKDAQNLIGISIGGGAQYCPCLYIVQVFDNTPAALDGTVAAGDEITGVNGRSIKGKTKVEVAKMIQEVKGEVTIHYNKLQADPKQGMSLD
Assay: holdup assay
Parameters: key: below the threshold = too weak to quantify, mostly under pKd 3.1 to 4
Details: plain residues with an end cap or a label only (N-terminal biotin on a linker: ado-ado)

Row | Binder | pKd
43 | SSALYGESDL [ACTN2, P35609] | below the threshold
44 | SKENVQETQI [LRRC4B, Q9NT99] | below the threshold

Molecular target: T10, RHPN1, Q8TCX5
T10 sequence (Q8TCX5 508-602, limits assumed, looked up): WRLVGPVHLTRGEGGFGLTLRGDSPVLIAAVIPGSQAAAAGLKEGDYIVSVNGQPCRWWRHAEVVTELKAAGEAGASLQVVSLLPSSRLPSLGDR
Assay: holdup assay
Parameters: key: below the threshold = too weak to quantify, mostly under pKd 3.1 to 4
Details: plain residues with an end cap or a label only (N-terminal biotin on a linker: ado-ado)

Row | Binder | pKd
45 | SSALYGESDL [ACTN2, P35609] | 3.51
46 | SKENVQETQI [LRRC4B, Q9NT99] | 5.1

Molecular target: SNX27, Q96L92
Assay: holdup assay
Parameters: key: below the threshold = too weak to quantify, mostly under pKd 3.1 to 4
Details: plain residues with an end cap or a label only (N-terminal biotin on a linker: ado-ado)

Row | Binder | pKd
47 | SSALYGESDL [ACTN2, P35609] | 4.76
48 | SKENVQETQI [LRRC4B, Q9NT99] | 5.55

Molecular target: T11, SYNJ2BP, P57105
T11 sequence (P57105 8-110, limits assumed, looked up): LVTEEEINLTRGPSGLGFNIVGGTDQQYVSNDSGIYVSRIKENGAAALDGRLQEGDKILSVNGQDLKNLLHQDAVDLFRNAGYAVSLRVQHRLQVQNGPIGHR
Assay: holdup assay
Parameters: key: below the threshold = too weak to quantify, mostly under pKd 3.1 to 4
Details: plain residues with an end cap or a label only (N-terminal biotin on a linker: ado-ado)

Row | Binder | pKd
49 | SSALYGESDL [ACTN2, P35609] | 3.87
50 | SKENVQETQI [LRRC4B, Q9NT99] | 4.6

Molecular target: T12, TIAM2, Q8IVF5
T12 sequence (Q8IVF5 885-986, limits assumed, looked up): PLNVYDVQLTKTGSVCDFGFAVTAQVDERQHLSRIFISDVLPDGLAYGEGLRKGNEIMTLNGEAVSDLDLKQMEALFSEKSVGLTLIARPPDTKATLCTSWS
Assay: holdup assay
Parameters: key: below the threshold = too weak to quantify, mostly under pKd 3.1 to 4
Details: plain residues with an end cap or a label only (N-terminal biotin on a linker: ado-ado)

Row | Binder | pKd
51 | SSALYGESDL [ACTN2, P35609] | 4.18
52 | SKENVQETQI [LRRC4B, Q9NT99] | 4.1
